“And” between values parts separate entries of the source, which are not always exact repeats. Equal entries are not always repeated.
Experiments:
[1] = Terpene synthase reaction product identification by GC-MS (incubation with FPP at pH 7.5); type: biochemical
Protocol: Partially purified protein was subsequently incubated with FPP at pH 7.5 using typical sesquiterpene synthase reaction conditions and the pentane extractable products examined by GC-MS (FIG. 7). Two compounds accounting for greater than 95% of the total reaction products dominated the GC profiles and were identified as beta-elemene (30%) and valencene (65%) on the basis of MS matches with authentic standards. The beta-elemene peak most certainly represents a thermal rearrangement product of germacrene A resulting from high temperature injection into the GC.
Small scale reactions of 50 μL were used for screening purposes and rate determinations. Reactions typically contained 200 mM Tris-HCl, pH 7.5, 40 mM MgCl2, 0.5 μCi [1-3H]FPP, 25-30 μM FPP and 160 nM enzyme. For kinetic determinations, 10 μL aliquots of FPP (giving final concentrations of 0.7-23 μM) were rapidly mixed with 40 μL of enzyme solution at room temperature (23° C.) and allowed to incubate for 1 minute. The reactions were terminated by addition of 150 μL, of a 100 mM KOH, 0.5 M EDTA stop solution. Reactions were extracted with 500 μL of hexane and an aliquot was taken for determination of radiolabeled hydrophobic product via liquid scintillation counting. Hexane extracted samples were not subject to silica chromatography prior to counting because background was minimal and synthase mutants could possibly produce reaction products containing alcohols, which would bind to silica. Kinetic constants were determined from direct fits of the Michaelis-Menton equation to the data using Graphpad Prism 2.01 software.
Initial synthase reaction products were examined by GC-MS. […] Pooled extracts were dried to 50 μL under a stream of nitrogen gas and 1 μL aliquots of this organic extract were analyzed by GC-MS using an HP-GCDplus (Hewlett-Packard, Palo Alto, Calif.) equipped with a DB-5 ms column, an injector temperature of 250° C. and the mass selective detector set to scan for ions within the range from 45 to 250 m/z. […]

[2] = pH dependence assay of reaction product specificity (GC-MS); type: biochemical
Protocol: Reactions to determine pH dependence were performed in glass GC-vials with 100 nM of purified enzyme, 20 mM MgCl2, 50 μM FPP (Echelon; Salt Lake City, Utah), and 100 mM buffer at various pH values; total reaction volume 500 μL. The buffers were chosen within one pH unit of the buffer's pKa (pH 5-5.5, acetate; pH 6-7, MES; pH 7.5-9, Tris; pH 9.5-10, ethanolamine; pH 10.5, CAPS). Reactions were allowed to proceed at room temperature for 30 min prior to overlaying with 500 μL of ethylacetate, vortexing for 10 sec, then direct analysis of the reaction products using an HP 6890 gas chromatograph with a 5973 mass spectrometer (Agilent Technologies, Palo Alto, Calif.) with an auto-sampler programmed to remove […] only from the organic phase. GC separations were performed on a 5%-phenyl-methylpolysiloxane column (J&M Scientific, Folsom, Calif.) of 30 m×0.25 mm i.d.×[…] with He as the carrier gas at 2 mL/min and a temperature gradient of 10° C./min from 50° C. (5-min hold) to 180° C. (4-min hold). GC/MS data was analyzed using HP-Chemstation software (version B.01.00) and integration of terpene peaks used for quantification.

[3] = partially purified protein incubated with FPP at pH 7.5, pentane extractable products, GC-MS

B1: CVS: citrus valencene synthase from Citrus paradisi, recombinant His-tagged protein expressed in E. coli, SEQ ID NO.: 4 (protein)
chain: MSSGETFRPTADFHPSLWRNHFLKGASDFKTVDHTATQERHEALKEEVRRMITDAEDKPVQKLRLIDEVQRLGVAYHFEKEIEDAILKLCPIYIDSNRADLHTVSLHFRLLRQQGIKISCDVFEKFKDDEGRFKSSLINDVQGMLSLYEAAYMAVRGEHILDEAIAFTTTHLKSLVAQDHVTPKLAEQINHALYRPLRKTLPRLEARYFMSMINSTSDHLYNKTLLNFAKLDFNILLEPHKEELNELTKWWKDLDFTTKLPYARDRLVELYFWDLGTYFEPQYAFGRKIMTQLNYILSIIDDTYDAYGTLEELSLFTEAVQRWNIEAVDMLPEYMKLIYRTLLDAFNEIEEDMAKQGRSHCVRYAKEENQKVIGAYSVQAKWFSEGYVPTIEEYMPIALTSCAYTFVITNSFLGMGDFATKEVFEWISNNPKVVKAASVICRLMDDMQGHEFEQKRGHVASAIECYTKQHGVSKEEAIKMFEEEVANAWKDINEELMMKPTVVARPLLGTILNLARAIDFIYKEDDGYTHSYLIKDQIASVLGDHVPF
modifications: His tag; Citrus X paradisi
With B1 the “beta-elemene plus valencene as share of total reaction products” value ([1]; pH 7.5, GC profiles) was “greater than 95%”, the “beta-elemene (thermal rearrangement product of germacrene A) as share of total reaction products” value [1, 3] was 30% and the “valencene as share of total reaction products” value [1, 3] was 65%. For the same molecule, the “pH of transition from valencene to germacrene A as dominant reaction product” value ([2]; FIG. 10) was 8.0 pH and ~8.2 pH, the “pH of optimal germacrene A biosynthesis” value ([2]; FIG. 10, FPP substrate) was 8.5 pH and the “pH of optimal valencene biosynthesis” value ([2]; FIG. 10, FPP substrate) was 7.0 pH. For the same molecule, the “valencene plus germacrene A (measured as β-elemene) as share of total reaction products” value ([2]; at all pHs, ethylacetate extracts, GC-MS) was “greater than 95%” and the “germacrene A as reaction product” value ([2]; between pH 6.0 to 7.0) was “virtually no germacrene A was detected”.

From patent US9534237B2, “Sesquiterpene synthase gene and protein” (University of Kentucky Research Foundation, priority 2003, dated 2017)
